From patent US20260132197A1 (NANJING LEGEND BIOTECH, published 2026)

Tests used:
[1] = target: T1, wild type human CD47 (Acro Biosystems, cat. no. CD7-H5227) (human, UniProt Q08722 19-139); assay: SPR, IgG captured, CD47 in flow; exp 3;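 note: other target is a CD47 mutein carrying C33G, used to obtain true monovalent affinity, with kon and koff fitted from SPR binding curves and KD derived from both rates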
T1 construct: Bought protein used as SPR analyte; also called Human CD47 wt; wild-type CD47
T1 sequence (Q08722 19-139 limits assumed): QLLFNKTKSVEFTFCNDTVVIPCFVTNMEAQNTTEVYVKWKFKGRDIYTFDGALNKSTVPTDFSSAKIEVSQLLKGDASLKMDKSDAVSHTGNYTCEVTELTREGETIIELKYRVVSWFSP

[2] = target: T2, Human CD47-C33G (human, UniProt Q08722 19-135); assay: SPR, IgG captured, CD47 in flow; exp 3;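 note: other target is a CD47 mutein carrying C33G, used to obtain true monovalent affinity, with kon and koff fitted from SPR binding curves and KD derived from both rates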
T2 construct: also called CD47 mutein with C33G mutation
T2 sequence (Q08722 19-135 C33G limits assumed): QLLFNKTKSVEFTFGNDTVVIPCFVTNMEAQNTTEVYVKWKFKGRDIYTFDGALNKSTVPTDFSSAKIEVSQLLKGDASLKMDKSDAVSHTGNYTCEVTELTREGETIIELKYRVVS

[3] = target: T1, wild type human CD47 (Acro Biosystems, …); assay: SPR, IgG captured, CD47 in flow; exp 2;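 note: rates derived from association and dissociation curves, KD estimated from them, C33G mutein used to avoid CD47 IgV homodimers for true monovalent affinity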
[4] = target: T2, Human CD47-C33G; assay: SPR, IgG captured, CD47 in flow; exp 2;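 note: rates derived from association and dissociation curves, KD estimated from them, C33G mutein used to avoid CD47 IgV homodimers for true monovalent affinity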

Binder	Kd [1] [nM]	koff [1] [s⁻¹]	kon [1] [M⁻¹ s⁻¹]	Kd [2] [nM]	koff [2] [s⁻¹]	kon [2] [M⁻¹ s⁻¹]	Kd [3] [nM]	koff [3] [s⁻¹]	kon [3] [M⁻¹ s⁻¹]	Kd [4] [nM]	koff [4] [s⁻¹]	kon [4] [M⁻¹ s⁻¹]	binding result [4]
108VH10.Mg / 108VL10.Me (antibody, V domains shown, 4D5-framework series; constant regions not restated for this series; also called VH10.Mg VL10.Me) VH: EVQLVESGGGLVQPGGSLRLSCAASGFTFSHHWIHWVRQAPGKGLEWVAMIDASDSETRLSQKFKDRFTISADTSKNTAYLQMNSLRAEDTAVYYCSRLGRYYFDYWGQGTLVTVSS VL: DIQMTQSPSSLSASVGDRVTITCRASQSISSYLNWYQQKPGKAPKLLIYGASSRYSGVPSRFSGSRSGTDFTLTISSLQPEDFATYYCGESYGHLYTFGQGTKVEIK	4.8	0.0032	680000	31	0.0072	230000	–	–	–	–	–	–	–
108VH10.Md / 108VL10.M1 (antibody, V domains shown, 4D5-framework series; constant regions not restated for this series; Asp52 replaced with Lys; also called VH10.Md VL10.M1) VH: EVQLVESGGGLVQPGGSLRLSCAASGYSFTHHWIHWVRQAPGKGLEWVAMIKPSDSETRLSQKFKDRFTISADTSKNTAYLQMNSLRAEDTAVYYCSRLGRYYFDYWGQGTLVTVSS VL: DIQMTQSPSSLSASVGDRVTITCRASENVGTYISWYQQKPGKAPKLLIYGASNRYTGVPSRFSGSRSGTDFTLTISSLQPEDFATYYCGESYGHLYTFGQGTKVEIK	–	–	–	–	–	–	–	–	–	–	–	–	no binding (tested: 2.5 nM to 1.28 µM of antigen tested)
108VH10 / 108VL10.Md (antibody, V domains shown, 4D5-framework series; constant regions not restated for this series; also called VH10 VL10.Md) VH: EVQLVESGGGLVQPGGSLRLSCAASGYSFTHHWIHWVRQAPGKGLEWVAMIDPSDSETRLSQKFKDRFTISADTSKNTAYLQMNSLRAEDTAVYYCSRLGRYYFDYWGQGTLVTVSS VL: DIQMTQSPSSLSASVGDRVTITCRASENVGTYISWYQQKPGKAPKLLIYGASNRYSGVPSRFSGSRSGTDFTLTISSLQPEDFATYYCGESYGHLYTFGQGTKVEIK	–	–	–	–	–	–	7.1	0.0016	230000	42	0.0036	86000	–

More lines, main results first:

Kd [1] [nM]	koff [1] [s⁻¹]	kon [1] [M⁻¹ s⁻¹]	Kd [2] [nM]	koff [2] [s⁻¹]	kon [2] [M⁻¹ s⁻¹]	Kd [3] [nM]	koff [3] [s⁻¹]	kon [3] [M⁻¹ s⁻¹]	Kd [4] [nM]	koff [4] [s⁻¹]	kon [4] [M⁻¹ s⁻¹]	Binder	binding result [4]
–	–	–	–	–	–	6.5	0.0016	240000	39	0.0035	89000	108VH10.Mb / 108VL10.M1 (antibody, V domains shown, 4D5-framework series; constant regions not restated for this series; also called VH10.Mb VL10.M1) VH: EVQLVESGGGLVQPGGSLRLSCAASGYSFTHHWMHWVRQAPGKGLEWVAMIDPSDSETRLSQKFKDRFTISADTSKNTAYLQMNSLRAEDTAVYYCSRLGRYYFDYWGQGTLVTVSS VL: DIQMTQSPSSLSASVGDRVTITCRASENVGTYISWYQQKPGKAPKLLIYGASNRYTGVPSRFSGSRSGTDFTLTISSLQPEDFATYYCGESYGHLYTFGQGTKVEIK	–
–	–	–	–	–	–	53	0.0027	52000	–	–	–	108VH10.Me / 108VL10.M1 (antibody, V domains shown, 4D5-framework series; constant regions not restated for this series; Pro53 replaced with Gln; also called VH10.Me VL10.M1) VH: EVQLVESGGGLVQPGGSLRLSCAASGYSFTHHWIHWVRQAPGKGLEWVAMIDQSDSETRLSQKFKDRFTISADTSKNTAYLQMNSLRAEDTAVYYCSRLGRYYFDYWGQGTLVTVSS VL: DIQMTQSPSSLSASVGDRVTITCRASENVGTYISWYQQKPGKAPKLLIYGASNRYTGVPSRFSGSRSGTDFTLTISSLQPEDFATYYCGESYGHLYTFGQGTKVEIK	–
5.2	0.0034	640000	38	0.0087	230000	–	–	–	–	–	–	108VH10.Mi / 108VL10.Me (antibody, V domains shown, 4D5-framework series; constant regions not restated for this series; also called VH10.Mi VL10.Me) VH: EVQLVESGGGLVQPGGSLRLSCAASGFTFSHHWIHWVRQAPGKGLEWVAMIDASDSETRLSDKFKDRFTISADTSKNTAYLQMNSLRAEDTAVYYCSRLGRYYFDYWGQGTLVTVSS VL: DIQMTQSPSSLSASVGDRVTITCRASQSISSYLNWYQQKPGKAPKLLIYGASSRYSGVPSRFSGSRSGTDFTLTISSLQPEDFATYYCGESYGHLYTFGQGTKVEIK	–
17	0.0066	380000	160	0.013	79000	–	–	–	–	–	–	108VH10.Mh / 108VL10.Me (antibody, V domains shown, 4D5-framework series; constant regions not restated for this series; also called VH10.Mh VL10.Me) VH: EVQLVESGGGLVQPGGSLRLSCAASGFTFSHHWIHWVRQAPGKGLEWVAMIDASDSETRLVQKFKDRFTISADTSKNTAYLQMNSLRAEDTAVYYCSRLGRYYFDYWGQGTLVTVSS VL: DIQMTQSPSSLSASVGDRVTITCRASQSISSYLNWYQQKPGKAPKLLIYGASSRYSGVPSRFSGSRSGTDFTLTISSLQPEDFATYYCGESYGHLYTFGQGTKVEIK	–
